Residue numbers refer to the chain shown, from its start. Each block holds one binder with its values, some of them ahead of it.
Assays:
[1] = target: T1, human TL1A (human, UniProt O95150 72-251); test: SPR, mAb format, average
T1 construct: Antigen in SPR and ELISA; Also used here for places that print only 'TL1A' and for endogenous TL1A in human whole blood; also called TNFSF15
T1 sequence (looked up): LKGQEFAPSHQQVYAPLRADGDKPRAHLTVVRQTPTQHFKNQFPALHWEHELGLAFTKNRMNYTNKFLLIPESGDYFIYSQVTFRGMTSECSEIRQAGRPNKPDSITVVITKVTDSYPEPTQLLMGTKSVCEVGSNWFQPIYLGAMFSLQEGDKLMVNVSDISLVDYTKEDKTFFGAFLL

[2] = target: T1, human TL1A; test: SPR, mAb format, average; remark: listed apart in the source
[3] = target: T2, mouse TL1A (mouse, UniProt Q5UBV8 76-252, limits assumed); test: SPR, mAb format
T2 sequence (looked up): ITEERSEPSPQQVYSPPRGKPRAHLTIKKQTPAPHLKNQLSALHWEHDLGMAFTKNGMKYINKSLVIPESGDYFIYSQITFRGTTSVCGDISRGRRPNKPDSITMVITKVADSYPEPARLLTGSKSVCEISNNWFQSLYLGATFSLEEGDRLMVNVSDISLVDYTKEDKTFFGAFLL

[4] = target: T3, FcRn (UniProt P55899 24-297; P61769 21-119); test: SPR, mAb format, FcRn at pH 6.0, average
T3 construct: also called neonatal receptor

[5] = target: T1, human TL1A; test: SPR, mAb format, average; remark: listed apart in the source
[6] = target: T4, Cyno TL1A (cyno, UniProt G7PRK8 72-251); test: SPR, mAb format, average
T4 sequence: T1 sequence (looked up) with F39L, I78V

[7] = target: T2, mouse TL1A; test: SPR, mAb format, average
[8] = target: T1, human TL1A; test: selectivity ELISA: antibody pre-incubated with TL1A, inhibition of TL1A binding to plate-coated DR3
[9] = target: T1, human TL1A; test: selectivity ELISA: antibody pre-incubated with TL1A, inhibition of TL1A binding to plate-coated DcR3
[10] = target: T1, human TL1A; test: SPR, affinity capture of Fab, average

Kd [1]: 0.385 nM
Kd [2]: 0.385 nM
binding result [3]: no binding
Kd [4]: 18.8 nM
Kd [5]: 0.385 nM
Kd [6]: 0.154 nM
B1: Antibody 13 (mAb format) (antibody, human IgG1, kappa, N297A)
heavy: QVQLQESGPGLVRPSQTLSLTCTVSGFDYQDTYMHWVRQRPGRGLEWMGRIDPASGHTKYNPSLKSRVTITRDTSKNQVSLRLSSVTAADTAVYYCAVSGGMPDVWGQGSLVTVSSASTKGPSVFPLAPSSKSTSGGTAALGCLVKDYFPEPVTVSWNSGALTSGVHTFPAVLQSSGLYSLSSVVTVPSSSLGTQTYICNVNHKPSNTKVDKKVEPKSCDKTHTCPPCPAPELLGGPSVFLFPPKPKDTLMISRTPEVTCVVVDVSHEDPEVKFNWYVDGVEVHNAKTKPREEQYASTYRVVSVLTVLHQDWLNGKEYKCKVSNKALPAPIEKTISKAKGQPREPQVYTLPPSRDELTKNQVSLTCLVKGFYPSDIAVEWESNGQPENNYKTTPPVLDSDGSFFLYSKLTVDKSRWQQGNVFSCSVLHEALHSHYTQKSLSLSPGK
light: DIQMTQSPSSLSASVGDRVTITCRASQGVEYMYWYQQKPGKAPKLLIYATSNLASGVPSRFSGSGSGTDFTFTISSLQPEDIATYYCQQWEGNPRTFGQGTKVEIKRTVAAPSVFIFPPSDEQLKSGTASVVCLLNNFYPREAKVQWKVDNALQSGNSQESVTEQDSKDSTYSLSSTLTLSKADYEKHKVYACEVTHQGLSSPVTKSFNRGEC
notes: also called high priority lead mAb

Kd [1]: 0.079 nM
Kd [2]: 0.079 nM
Kd [4]: 16.4 nM
Kd [7]: 391 nM
Kd [5]: 0.079 nM
Kd [6]: 0.046 nM
B2: Antibody 20 (mAb format) (antibody, human IgG1, kappa, N297A)
heavy: B1 heavy with Y29I, D52E, V98R, V105M
light: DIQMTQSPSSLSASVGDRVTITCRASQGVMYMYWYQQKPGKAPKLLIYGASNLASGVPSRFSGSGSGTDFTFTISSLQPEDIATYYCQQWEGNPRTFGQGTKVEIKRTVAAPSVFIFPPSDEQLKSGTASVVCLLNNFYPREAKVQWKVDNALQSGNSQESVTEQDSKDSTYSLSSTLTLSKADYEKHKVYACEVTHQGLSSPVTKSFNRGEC
notes: as for B1

Kd [1]: 0.2 nM
Kd [2]: 0.2 nM
Kd [4]: 20.4 nM
Kd [7]: 842 nM
Kd [5]: 0.2 nM
Kd [6]: 0.135 nM
B3: Antibody 11 (mAb format) (antibody, human IgG1, kappa, N297A)
heavy: B1 heavy with Y29M, Q30G, D52E, S55G, A97V, V98R
light: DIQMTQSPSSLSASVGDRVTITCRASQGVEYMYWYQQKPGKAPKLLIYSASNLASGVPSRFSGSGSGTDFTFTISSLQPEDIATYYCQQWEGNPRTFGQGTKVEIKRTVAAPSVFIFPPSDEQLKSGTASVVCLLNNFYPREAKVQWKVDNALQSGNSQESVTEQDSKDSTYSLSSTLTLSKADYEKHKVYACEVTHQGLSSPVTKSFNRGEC
notes: as for B1

Kd [1]: 0.096 nM
Kd [2]: 0.096 nM
Kd [4]: 18.2 nM
Kd [7]: 739 nM
Kd [5]: 0.096 nM
Kd [6]: 0.064 nM
B4: Antibody 9 (mAb format) (antibody, human IgG1, kappa, N297A)
heavy: B1 heavy with Y29I, D52E, S55G, A97V, V98R, M102L, V105A
light: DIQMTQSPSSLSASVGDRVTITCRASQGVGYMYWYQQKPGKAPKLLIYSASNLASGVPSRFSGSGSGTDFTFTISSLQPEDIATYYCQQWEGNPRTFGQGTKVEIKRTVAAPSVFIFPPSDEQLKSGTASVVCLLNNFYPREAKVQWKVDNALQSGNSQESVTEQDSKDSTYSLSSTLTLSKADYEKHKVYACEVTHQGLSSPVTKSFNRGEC
notes: as for B1

Kd [1]: 0.073 nM
Kd [2]: 0.073 nM
Kd [4]: 17.2 nM
Kd [7]: 727 nM
Kd [5]: 0.073 nM
Kd [6]: 0.038 nM
B5: Antibody 5 (mAb format) (antibody, human IgG1, kappa, N297A)
heavy: B1 heavy with Y29M, D52E, A97V, V98R, M102L
light: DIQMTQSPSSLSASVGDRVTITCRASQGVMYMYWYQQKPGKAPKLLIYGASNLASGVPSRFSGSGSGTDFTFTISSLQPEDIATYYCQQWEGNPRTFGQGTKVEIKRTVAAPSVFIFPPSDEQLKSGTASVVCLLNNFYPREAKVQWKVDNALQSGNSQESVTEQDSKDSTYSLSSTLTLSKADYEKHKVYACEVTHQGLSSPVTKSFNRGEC
notes: as for B1

Kd [1]: 0.252 nM
Kd [2]: 0.252 nM
Kd [4]: 16.2 nM
Kd [7]: 397 nM
Kd [5]: 0.252 nM
Kd [6]: 0.087 nM
B6: Antibody 18 (mAb format) (antibody, human IgG1, kappa, N297A)
heavy: B1 heavy with Y29M, Q30G, D52E, S55G, A97V, V98R
light: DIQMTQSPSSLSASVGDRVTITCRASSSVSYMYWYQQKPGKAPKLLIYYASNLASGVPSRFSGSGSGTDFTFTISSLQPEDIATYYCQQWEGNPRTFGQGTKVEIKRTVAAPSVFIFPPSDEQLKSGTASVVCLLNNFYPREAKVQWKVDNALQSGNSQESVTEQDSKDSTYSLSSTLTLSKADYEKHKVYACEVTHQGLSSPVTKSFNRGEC
notes: as for B1

Kd [1]: 0.172 nM
Kd [2]: 0.172 nM
Kd [4]: 17.4 nM
Kd [7]: 452 nM
Kd [5]: 0.172 nM
Kd [6]: 0.099 nM
B7: Antibody 17 (mAb format) (antibody, human IgG1, kappa, N297A)
heavy: B1 heavy with Y29M, Q30G, D52E, S55A, A97V, V98R, M102L
light: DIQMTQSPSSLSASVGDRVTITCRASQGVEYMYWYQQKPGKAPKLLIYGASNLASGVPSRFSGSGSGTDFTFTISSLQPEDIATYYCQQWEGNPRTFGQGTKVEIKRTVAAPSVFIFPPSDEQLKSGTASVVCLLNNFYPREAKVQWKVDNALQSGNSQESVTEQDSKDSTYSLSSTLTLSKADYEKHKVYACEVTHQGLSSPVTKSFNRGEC
notes: as for B1

Kd [1]: 0.101 nM
Kd [2]: 0.101 nM
Kd [4]: 20.9 nM
Kd [7]: 1720 nM
Kd [5]: 0.101 nM
Kd [6]: 0.085 nM
B8: Antibody 6 (mAb format) (antibody, human IgG1, kappa, N297A)
heavy: B1 heavy with Y29M, Q30A, D52E, S55G, A97V, V98R, M102L, V105M
light: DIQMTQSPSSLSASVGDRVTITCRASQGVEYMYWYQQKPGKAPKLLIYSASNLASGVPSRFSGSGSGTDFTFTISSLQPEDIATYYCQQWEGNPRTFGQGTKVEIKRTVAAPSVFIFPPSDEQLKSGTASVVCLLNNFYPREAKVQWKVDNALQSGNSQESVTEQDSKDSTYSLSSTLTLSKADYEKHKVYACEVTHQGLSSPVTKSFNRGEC
notes: as for B1

IC50 [8]: 2.6 µg/mL
IC50 [9]: 0.7 µg/mL
B9: TEV-48574 (antibody, V domains shown)
VH: QVQLVQSGAEVKKPGASVKVSCKASGYTFTSYDINWVRQAPGQGLEWMGWLNPNSGYTGYAQKFQGRVTMTADRSTSTAYMELSSLRSEDTAVYYCAREVPETAAFEYWGQGTLVTVSS
VL: QSVLTQPPSVSGAPGQRVTISCTSSSSDIGAGLGVHWYQQLPGTAPKLLIEGYYNRPSGVPDRFSGSKSGTSASLTITGLLPEDEGDYYCQSWDGTLSALFGGGTKLTVLR

Kd [10]: 5.71 nM
B10: Heron2B-Toci (Fab, V domains shown)
VH: QVQLQESGPGLVRPSQTLSLTCTVSGFDIQDTYMHWVRQRPGRGLEWMGRIDPASGHTKYNPSLKSRVTITRDTSKNQVSLRLSSVTAADTAVYYCARSGGLPDVWGQGSLVTVSS
VL: DIQMTQSPSSLSASVGDRVTITCRASSSVSYMYWYQQKPGKAPKLLIYATSNLASGVPSRFSGSGSGTDFTFTISSLQPEDIATYYCQQWEGNPRTFGQGTKVEIK
notes: also called Heron2B-toci parent

IC50 [8]: 4.4 µg/mL
IC50 [9]: 0.8 µg/mL
B11: RVT-3101 (antibody, V domains shown)
VH: QVQLVQSGAEVKKPGASVKVSCKASGYDFTYYGISWVRQAPGQGLEWMGWISTYNGNTHYARMLQGRVTMTTDTSTRTAYMELRSLRSDDTAVYYCARENYYGSGAYRGGMDVWGQGTTVTVSS
VL: EIVLTQSPATLSLSPGERATLSCRASQSVSSYLAWYQQKPGQAPRLLIYDASNRATGIPARFSGSGSGTDFTLTISSLEPEDFAVYYCQQRSNWPWTFGQGTKVEIK
